First the molecules themselves.
B1: Zinc finger protein-like 1 (Mus musculus), Q9DB43 (parent)
chain: MGLCKCPKRKVTNLFCFEHRVNVCEHCLVANHAKCIVQSYLQWLQDSDYNPNCRLCNTPLASRETTRLVCYDLFHWACINERAAQLPRNTAPAGYQCPSCNGPIFPPANLAGPVASALREKLATVNWARAGLGLPLIDEVISPEPEPLNSSDFSDWSSFNATTTSVQEERASTPSAPAFYSQAPRPPPSPSRPEQHTVIHMGSTEALAHAPRKVYDTRDDDRTAGIHGDCDDDKYRRRPALGWLAQLLRSRAGSRKRPLTLLQRAGLLLLLGLLGFLALLALMSRLGRAAADSDPNLDPLMNPHIRVGPS
partner: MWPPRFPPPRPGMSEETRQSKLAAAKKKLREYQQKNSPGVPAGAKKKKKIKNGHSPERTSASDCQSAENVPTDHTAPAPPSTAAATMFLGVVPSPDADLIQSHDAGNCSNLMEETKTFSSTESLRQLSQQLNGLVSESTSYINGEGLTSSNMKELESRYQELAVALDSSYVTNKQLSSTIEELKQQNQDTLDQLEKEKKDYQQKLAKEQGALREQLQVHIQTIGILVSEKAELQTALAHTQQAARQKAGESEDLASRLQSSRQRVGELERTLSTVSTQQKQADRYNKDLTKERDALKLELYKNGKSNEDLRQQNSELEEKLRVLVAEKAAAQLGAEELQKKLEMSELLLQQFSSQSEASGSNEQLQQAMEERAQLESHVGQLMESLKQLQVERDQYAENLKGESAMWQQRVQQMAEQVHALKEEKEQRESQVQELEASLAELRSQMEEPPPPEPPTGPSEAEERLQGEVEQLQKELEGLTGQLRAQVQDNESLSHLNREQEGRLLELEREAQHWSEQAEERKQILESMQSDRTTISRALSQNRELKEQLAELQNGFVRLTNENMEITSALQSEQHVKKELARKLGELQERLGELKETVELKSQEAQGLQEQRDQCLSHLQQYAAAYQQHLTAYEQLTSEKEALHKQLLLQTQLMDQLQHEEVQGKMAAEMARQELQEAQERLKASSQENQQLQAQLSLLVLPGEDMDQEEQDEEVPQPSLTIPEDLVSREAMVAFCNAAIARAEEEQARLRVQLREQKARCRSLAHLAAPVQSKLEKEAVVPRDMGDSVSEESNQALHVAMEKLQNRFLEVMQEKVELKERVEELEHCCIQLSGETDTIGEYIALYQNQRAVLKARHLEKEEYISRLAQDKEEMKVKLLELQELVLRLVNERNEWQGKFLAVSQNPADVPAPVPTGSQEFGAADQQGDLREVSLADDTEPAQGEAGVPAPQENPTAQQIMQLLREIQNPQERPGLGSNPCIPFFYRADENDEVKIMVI

The variants in one assay derive from B1. The conditions noted are these: with goga2_rat Golga2, Q62839.
For MGLCKAPKRKVTNLFCFEHRVNVCEHCLVANHAKCIVQSYLQWLQDSDYNPNCRLCNTPLASRETTRLVCYDLFHWACINERAAQLPRNTAPAGYQCPSCNGPIFPPANLAGPVASALREKLATVNWARAGLGLPLIDEVISPEPEPLNSSDFSDWSSFNATTTSVQEERASTPSAPAFYSQAPRPPPSPSRPEQHTVIHMGSTEALAHAPRKVYDTRDDDRTAGIHGDCDDDKYRRRPALGWLAQLLRSRAGSRKRPLTLLQRAGLLLLLGLLGFLALLALMSRLGRAAADSDPNLDPLMNPHIRVGPS [C6A], the “effect of a mutation on the interaction” value is on record as “disrupting interaction”.

The variants in the next assay derive from B1. Particulars: with goga2_rat Golga2, Q62839. This is another data set of the same source.
With MGLCKCPKRKVTNLFCFEHRVNVCEHALVANHAKCIVQSYLQWLQDSDYNPNCRLCNTPLASRETTRLVCYDLFHWACINERAAQLPRNTAPAGYQCPSCNGPIFPPANLAGPVASALREKLATVNWARAGLGLPLIDEVISPEPEPLNSSDFSDWSSFNATTTSVQEERASTPSAPAFYSQAPRPPPSPSRPEQHTVIHMGSTEALAHAPRKVYDTRDDDRTAGIHGDCDDDKYRRRPALGWLAQLLRSRAGSRKRPLTLLQRAGLLLLLGLLGFLALLALMSRLGRAAADSDPNLDPLMNPHIRVGPS [C27A], the “effect of a mutation on the interaction” value is reported as “decreasing interaction”.

Variants of B1 are the subject of a further assay. The conditions noted are these: with goga2_rat Golga2, Q62839. The source holds these as a separate data set.
For MGLCKCPKRKVTNLFCFEHRVNVCEHALVANHAKCIVQSYLQWLQDSDYNPNCRLCNTPLASRETTRLVCYDLFHWACINERAAQLPRNTAPAGYQCPSCNGPIFPPANLAGPVASALREKLATVNWARAGLGLPLIDEVISPEPEPLNSSDFSDWSSFNATTTSVQEERASTPSAPAFYSQAPRPPPSPSRPEQHTVIHMGSTEALAHAPRKVYDTRDDDRTAGIHGDCDDDKYRRRPALGWLAQLLRSRAGSRKRPLTLLQRAGLLLLLGLLGFLALLALMSRLGRAAADSDPNLDPLMNPHIRVGPS [C27A], the “effect of a mutation on the interaction” value is “disrupting interaction”.

In the next assay the parent is B1. The conditions noted are these: with goga2_rat Golga2, Q62839. This is another data set of the same source.
For MGLCKCPKRKVTNLFCFEHRVNVCEHCLVANHAKCIVQSYLQWLQDSDYNPNARLCNTPLASRETTRLVCYDLFHWACINERAAQLPRNTAPAGYQCPSCNGPIFPPANLAGPVASALREKLATVNWARAGLGLPLIDEVISPEPEPLNSSDFSDWSSFNATTTSVQEERASTPSAPAFYSQAPRPPPSPSRPEQHTVIHMGSTEALAHAPRKVYDTRDDDRTAGIHGDCDDDKYRRRPALGWLAQLLRSRAGSRKRPLTLLQRAGLLLLLGLLGFLALLALMSRLGRAAADSDPNLDPLMNPHIRVGPS [C53A], the “effect of a mutation on the interaction” value was “decreasing interaction”.
